In patent US20210340217A1, “NOVEL PEPTIDES AND COMBINATION OF PEPTIDES FOR USE IN IMMUNOTHERAPY AGAINST OVARIAN CANCER AND OTHER CANCERS” (Immatics Biotechnologies GmbH, priority 2017, published 2021):

Target: HLA-B*07:02 (Homo sapiens, UniProt P01889)
Experiment: MHC binding assay (UV-ligand exchange, beta2m ELISA)
Conditions: peptide exchange yield
From the text: Candidate peptides for T cell based therapies according to the present invention were further tested for their MHC binding capacity (affinity). The individual peptide-MHC complexes were produced by UV-ligand exchange, where a UV-sensitive peptide is cleaved upon UV-irradiation, and exchanged with the peptide of interest as analyzed. Only peptide candidates that can effectively bind and stabilize the peptide-receptive MHC molecules prevent dissociation of the MHC complexes. To determine the yield of the exchange reaction, an ELISA was performed based on the detection of the light chain (β2m) of stabilized MHC complexes. The assay was performed as generally described in Rodenko et al. (Rodenko et al., 2006).
96 well MAXISorp plates (NUNC) were coated over night with 2 ug/ml streptavidin in PBS at room temperature, washed 4× and blocked for 1 h at 37° C. in 2% BSA containing blocking buffer. Refolded HLA-A*02:01/MLA-001 monomers served as standards, covering the range of 15-500 ng/ml. Peptide-MHC monomers of the UV-exchange reaction were diluted 100-fold in blocking buffer. Samples were incubated for 1 h at 37° C., washed four times, incubated with 2 ug/ml HRP conjugated anti-β2m for 1h at 37° C., washed again and detected with TMB solution that is stopped with […]. Absorption was measured at 450 nm. Candidate peptides that show a high exchange yield (preferably higher than 50%, most preferred higher than 75%) are generally preferred for a generation and production of antibodies or fragments thereof, and/or T cell receptors or fragments thereof, as they show sufficient avidity to the MHC molecules and prevent dissociation of the MHC complexes.

Substance	Peptide exchange
141 (SPMTSLLTSGL; listed as Homo sapiens) [compound 141]	“+++” (>50 = +++)
142 (TPGLRETSI; listed as Homo sapiens) [compound 142]	“++” (>20% = ++)
143 (SPAMTSTSF; listed as Homo sapiens) [compound 143]	“++” (>20% = ++)
144 (SPSPVSSTL; listed as Homo sapiens) [compound 144]	“+++” (>50 = +++)
145 (SPSSPMSTF; listed as Homo sapiens) [compound 145]	“++” (>20% = ++)
146 (IPRPEVQAL; listed as Homo sapiens) [compound 146]	“+++” (>50 = +++)
147 (APRWFPQPTVV; listed as Homo sapiens) [compound 147]	“+++” (>50 = +++)
148 (KPYGGSGPL; listed as Homo sapiens) [compound 148]	“+++” (>50 = +++)
149 (GPREALSRL; listed as Homo sapiens) [compound 149]	“+++” (>50 = +++)
293 (VPDSGATATAY; listed as Homo sapiens) [compound 293]	“++” (>20% = ++)
294 (YPLRGSSIF; listed as Homo sapiens) [compound 294]	“+++” (>50 = +++)
295 (YPLRGSSIFGL; listed as Homo sapiens) [compound 295]	“+++” (>50 = +++)
296 (YPLRGSSI; listed as Homo sapiens) [compound 296]	“++” (>20% = ++)
297 (TVREASGLL; listed as Homo sapiens) [compound 297]	“+++” (>50 = +++)
298 (YPTEHVQF; listed as Homo sapiens) [compound 298]	“++” (>20% = ++)
299 (HPGSSALHY; listed as Homo sapiens) [compound 299]	“++” (>20% = ++)
300 (IPMAAVKQAL; listed as Homo sapiens) [compound 300]	“+++” (>50 = +++)
301 (SPRRSPRISF; listed as Homo sapiens) [compound 301]	“++” (>20% = ++)
302 (RVEEVRALL; listed as Homo sapiens) [compound 302]	“+++” (>50 = +++)

Substance	Peptide exchange
303 (LPMWKVTAF; listed as Homo sapiens) [compound 303]	“+++” (>50 = +++)
304 (LPRPGAVL; listed as Homo sapiens) [compound 304]	“+++” (>50 = +++)
305 (TPWAESSTKF; listed as Homo sapiens) [compound 305]	“++” (>20% = ++)
306 (APVIFSHSA; listed as Homo sapiens) [compound 306]	“++” (>20% = ++)
307 (LPYGPGSEAAAF; listed as Homo sapiens) [compound 307]	“+++” (>50 = +++)
308 (YPEGAAYEF; listed as Homo sapiens) [compound 308]	“++” (>20% = ++)
309 (FPQSQYPQY; listed as Homo sapiens) [compound 309]	“++++” (>75% = ++++)
311 (RPLFYVVSL; listed as Homo sapiens) [compound 311]	“++” (>20% = ++)
312 (LPYFREFSM; listed as Homo sapiens) [compound 312]	“+++” (>50 = +++)
313 (KVKSDRSVF; listed as Homo sapiens) [compound 313]	“+” (>10% = +)
314 (VPDQPHPEI; listed as Homo sapiens) [compound 314]	“+++” (>50 = +++)
315 (SPRENFPDTL; listed as Homo sapiens) [compound 315]	“+++” (>50 = +++)
316 (EPKTATVL; listed as Homo sapiens) [compound 316]	“++” (>20% = ++)
317 (FPFQPGSV; listed as Homo sapiens) [compound 317]	“+++” (>50 = +++)
318 (FPNRLNLEA; listed as Homo sapiens) [compound 318]	“+++” (>50 = +++)
319 (SPAEPSVYATL; listed as Homo sapiens) [compound 319]	“++++” (>75% = ++++)
320 (FPMSPVTSV; listed as Homo sapiens) [compound 320]	“+++” (>50 = +++)
321 (SPMDTFLLI; listed as Homo sapiens) [compound 321]	“++” (>20% = ++)

Other lines, results leading:

Peptide exchange	Substance
“++” (>20% = ++)	322 (SPDPSKHLL; listed as Homo sapiens) [compound 322]
“+++” (>50 = +++)	323 (RPMPNLRSV; listed as Homo sapiens) [compound 323]
“++” (>20% = ++)	324 (VPYRVVGL; listed as Homo sapiens) [compound 324]
“+++” (>50 = +++)	325 (GPRNAQRVL; listed as Homo sapiens) [compound 325]
“++” (>20% = ++)	326 (VPSEIDAAF; listed as Homo sapiens) [compound 326]
“+++” (>50 = +++)	327 (SPLPVTSLI; listed as Homo sapiens) [compound 327]
“++” (>20% = ++)	328 (EPVTSSLPNF; listed as Homo sapiens) [compound 328]
“+++” (>50 = +++)	329 (FPAMTESGGMIL; listed as Homo sapiens) [compound 329]
“++” (>20% = ++)	330 (FPFVTGSTEM; listed as Homo sapiens) [compound 330]
“+++” (>50 = +++)	331 (FPHPEMTTSM; listed as Homo sapiens) [compound 331]
“+++” (>50 = +++)	332 (FPHSEMTTL; listed as Homo sapiens) [compound 332]
“+++” (>50 = +++)	333 (FPHSEMTTVM; listed as Homo sapiens) [compound 333]
“+++” (>50 = +++)	334 (FPYSEVTTL; listed as Homo sapiens) [compound 334]
“++” (>20% = ++)	335 (HPDPVGPGL; listed as Homo sapiens) [compound 335]
“++” (>20% = ++)	336 (HPKTESATPAAY; listed as Homo sapiens) [compound 336]
“+++” (>50 = +++)	337 (HPVETSSAL; listed as Homo sapiens) [compound 337]
“++” (>20% = ++)	338 (HVTKTQATF; listed as Homo sapiens) [compound 338]
“+++” (>50 = +++)	339 (LPAGTTGSLVF; listed as Homo sapiens) [compound 339]
“++” (>20% = ++)	340 (LPEISTRTM; listed as Homo sapiens) [compound 340]
“+++” (>50 = +++)	341 (LPLDTSTTL; listed as Homo sapiens) [compound 341]
“+++” (>50 = +++)	342 (LPLGTSMTF; listed as Homo sapiens) [compound 342]
“++” (>20% = ++)	343 (LPSVSGVKTTF; listed as Homo sapiens) [compound 343]
